Measured values taken from publication PMC8254080 (Biochemistry and Biophysics Reports, 2021).
Read-outs that look alike come from different tables or passages of the source.

B1: Shigella MxiH (type 3 needle filament protomer) with N-terminal Strep-tag II and factor Xa cleavage site (natural protein, UniProt P0A223 1-83, looked up)
chain: MSVTVPNDDWTLSSLSETFDDGTQTLQGELTLALDKLAKNPSNPQLLAEYQSKLSEYTLYRNAQSNTVKVIKDVDAAIIQNFR
B2: Salmonella PrgI (type 3 needle filament protomer, SPI-1) (natural protein, Salmonella (strain SB905))
chain: MATPWSGYLDDVSAKFDTGVDNLQTQVTEALDKLAAKPSDPALLAAYQSKLSEYNLYRNAQSNTVKVFKDIDAAIIQNFR

Assays:
cryo-EM structure [1] = target: the molecule itself; assay: cryo-EM structure
cryo-EM structure [2] = target: the molecule itself; assay: cryo-EM structure; remark: listed apart in the source

| Protein | binding result (cryo-EM structure [1]) | binding result (cryo-EM structure [2]) |
| --- | --- | --- |
| B1 | binds |  |
| B2 |  | binds |
